{"source": "paper PMC12540871", "target": "CVB3 3D (Coxsackievirus B3, UniProt P03313 1724-2185)", "sequence (P03313 1724-2185)": "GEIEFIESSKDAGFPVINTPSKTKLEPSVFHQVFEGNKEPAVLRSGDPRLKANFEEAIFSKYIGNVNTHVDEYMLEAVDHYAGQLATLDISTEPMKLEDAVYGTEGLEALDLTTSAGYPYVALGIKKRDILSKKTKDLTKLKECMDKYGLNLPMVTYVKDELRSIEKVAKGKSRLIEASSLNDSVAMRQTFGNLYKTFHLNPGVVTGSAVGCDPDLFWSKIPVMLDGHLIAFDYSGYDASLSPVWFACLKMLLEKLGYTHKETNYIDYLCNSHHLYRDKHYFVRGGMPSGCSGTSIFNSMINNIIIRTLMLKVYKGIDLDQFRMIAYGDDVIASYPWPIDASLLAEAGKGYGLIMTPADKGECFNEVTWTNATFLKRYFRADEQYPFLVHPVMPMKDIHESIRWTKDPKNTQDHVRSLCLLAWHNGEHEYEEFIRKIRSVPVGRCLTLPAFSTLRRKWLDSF", "assay": "ITC"}
{"binder": "CVB3 CL WT (structured_RNA) RNA: GGUAAAACAGCCUGUGGGUUGAUCCCACCCACAGGGCCCAUUGGGCGCUAGCACUCUGGUAUCACGGUACCUUUGUGCGCCUGUUUUACC", "values": [{"measurement": "binding result", "value": "no binding"}]}
